Measurements as given in article PMC11922060.

Biological target: Sumo-tagged Drosophila Spd-2 C-terminal half (Spd-2 697-1146) P817D, phosphorylated in vitro by human PLK1 (UniProt Q9VV79)
Assay: SEC-MALS
Settings: 50 µM protein, phosphorylated in vitro with recombinant human PLK1 kinase; parent: est. 0.50; read off a plot

Chain of UniProt Q9VV79 (Q9VV79 entry or part of it P817D | P817D): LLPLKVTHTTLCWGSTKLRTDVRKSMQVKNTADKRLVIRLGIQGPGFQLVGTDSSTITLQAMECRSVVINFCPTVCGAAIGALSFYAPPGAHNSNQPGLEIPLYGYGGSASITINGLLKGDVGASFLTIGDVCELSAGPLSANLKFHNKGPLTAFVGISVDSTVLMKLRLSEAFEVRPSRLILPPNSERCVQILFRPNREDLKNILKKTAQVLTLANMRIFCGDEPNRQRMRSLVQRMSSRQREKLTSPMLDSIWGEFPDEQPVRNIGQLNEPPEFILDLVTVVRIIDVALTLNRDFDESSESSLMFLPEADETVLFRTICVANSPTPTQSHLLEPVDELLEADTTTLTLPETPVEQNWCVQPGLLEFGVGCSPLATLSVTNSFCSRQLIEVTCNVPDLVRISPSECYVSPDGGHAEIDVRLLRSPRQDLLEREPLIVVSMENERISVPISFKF

response: 0.14
Substance: Sumo-tagged Drosophila Spd-2 C-terminal half (Spd-2 697-1146), wild type, phosphorylated in vitro by human PLK1 (from UniProt Q9VV79) P817D
